Data taken from patent US20250361544A1, “TYPE III-D CRISPR-CAS SYSTEM AND USES THEREOF” (BOARD OF REGENTS, THE UNIVERSITY OF TEXAS SYSTEM, published 2025).

Target: T1, Cas7-Cas5-Cas11 fusion subunit of the Synechocystis sp. PCC 6803 Type III-Dv complex (Synechocystis sp. PCC 6803)
T1 construct: Untagged, co-expressed from pPF2434 in E. coli; one copy in the complex; also called Cas7-5-11; Cas5-Cas7-Cas11
T1 chain: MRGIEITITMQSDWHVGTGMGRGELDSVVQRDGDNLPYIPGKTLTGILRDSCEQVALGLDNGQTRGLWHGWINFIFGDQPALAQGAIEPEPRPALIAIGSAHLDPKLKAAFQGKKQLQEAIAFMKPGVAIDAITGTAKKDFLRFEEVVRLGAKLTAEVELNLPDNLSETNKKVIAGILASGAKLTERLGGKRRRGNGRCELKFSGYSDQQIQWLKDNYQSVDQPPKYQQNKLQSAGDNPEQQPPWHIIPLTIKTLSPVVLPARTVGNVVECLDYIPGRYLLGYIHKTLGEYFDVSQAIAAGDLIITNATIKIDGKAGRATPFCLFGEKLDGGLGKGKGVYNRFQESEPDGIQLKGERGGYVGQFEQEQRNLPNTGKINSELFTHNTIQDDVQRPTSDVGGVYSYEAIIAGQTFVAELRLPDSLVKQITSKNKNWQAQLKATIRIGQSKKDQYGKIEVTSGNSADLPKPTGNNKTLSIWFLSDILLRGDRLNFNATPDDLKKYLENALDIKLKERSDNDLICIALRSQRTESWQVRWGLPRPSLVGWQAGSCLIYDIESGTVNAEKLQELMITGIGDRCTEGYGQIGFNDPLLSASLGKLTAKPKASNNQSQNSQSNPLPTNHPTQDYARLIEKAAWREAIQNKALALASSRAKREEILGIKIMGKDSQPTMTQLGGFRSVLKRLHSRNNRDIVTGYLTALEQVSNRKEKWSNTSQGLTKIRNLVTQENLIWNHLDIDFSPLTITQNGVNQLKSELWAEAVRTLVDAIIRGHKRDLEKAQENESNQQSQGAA
Test: co-purification by metal affinity (His6-Cas10) and SEC; SDS-PAGE and MS; membership of one complex
Protocol: Cells were lysed by a French pressure cell press (American Industry Company) at 10,000 psi, and the lysate was clarified by centrifugation at 15,000×g for 15 min. […] The fractions containing the Type III-Dv complex were pooled and treated with TEV protease and incubated at 4° C. during overnight dialysis in SEC buffer (10 mM HEPES-NaOH, PH 7.5, 100 mM KCl, 5% Glycerol, 1 mM DTT). The sample was applied to a second HisTrap column; however, due to inefficient TEV cleavage, the complex unexpectedly bound the column and eluted with high imidazole. The complex was further purified by size exclusion chromatography (SEC) on a HiLoad 16/600 Superdex 200 column (GE Healthcare) equilibrated in SEC Buffer). Mutant Type III-Dv complexes were similarly expressed and purified, except TEV protease was omitted. Purified complexes were typically concentrated to 1.5 mg/ml using a centrifugal concentrator (Amicon; 100 kDa MWCO), aliquoted, and stored at −80° C.
Denaturing liquid chromatography mass spectrometry (LC-MS) was performed on a Dionex UltiMate 3000 nanoLC system coupled to a Thermo Orbitrap Fusion Lumos Tribrid mass spectrometer (San Jose, Ca). The trap column (3 cm) and analytical column (30 cm) were packed in-house with polymer reverse-phase (PLRP) packing material. […]

binding result: binds
B1: Cas10 subunit of the Synechocystis sp. PCC 6803 Type III-Dv CRISPR-Cas complex, with N-terminal His6 tag and TEV site (other)
chain: MFLVLIETSGNQHFIFSTNKLRENIGASELTYLATTEILFQGVDRVFQTNYYDQWSDTNSLNFLADSKLNPAIDDPKNNADIEILLATSGKAIALVKEEGKAKQLIKEVTKQALINAPGLEIGGIYVNCNWQDKLGVAKAVKEAHKQFEVNRAKRAGANGRFLRLPIAAGCSVSELPASDFDYNADGDKIPVSTVSKVKRETAKSAKKRLRSVDGRLVNDLAQLEKSFDELDWLAVVHADGNGLGQILLSLEKYIGEQTNRNYIDKYRRLSLALDNCTINAFKMAIAVFKEDSKKIDLPIVPLILGGDDLTVICRGDYALEFTREFLEAFEGQTETHDDIKVIAQKAFGVDRLSACAGISIIKPHFPFSVAYTLAERLIKSAKEVKQKVTVTNSSPITPFPCSAIDFHILYDSSGIDFDRIREKLRPEDNTELYNRPYVVTAAENLSQAQGYEWSQAHSLQTLADRVSYLRSEDGEGKSALPSSQSHALRTALYLEKNEADAQYSLISQRYKILKNFAEDGENKSLFHLENGKYVTRFLDALDAKDFFANANHKNQGE
notes: Whole gene amplified from Synechocystis genomic DNA and co-expressed in E. coli from pPF2434; The complex also holds a 37-nt crRNA; also called His6-TEV-Cas10; N-His6-tagged Cas10; not shown: TEV cleavage was inefficient, so
